Assay [1] deals with recombinant factor H binding protein (fHbp) ID 1 (Neisseria meningitidis (strain MC58)) (UniProt Q9JXV4). In words: ELISA; competitive inhibition: wells coated with 2 µg/ml fHbp ID 1; dilutions of the first mAb together with 1 µg/ml of the second mAb, 37°C, 2 h; detection with subclass-specific (IgG3 or IgG2a) secondary antibody.
Assay [2] addresses murine anti-fHbp mAb502 (IgG2a). In words: ELISA. The following applies: wells coated with 2 µg/ml of wild-type or mutant fHbp, read off a plot. (In general: ELISA stands for enzyme-linked immunosorbent assay.)
Assay [3] addresses murine anti-fHbp mAb JAR 1 (IgG3). Description: ELISA. The settings on record: mAb at 10 µg/ml (highest point of titration); wells coated with 2 µg/ml of wild-type or mutant fHbp; parent: est. 2.4; read off a plot.
Assay [4] has as its target murine anti-fHbp mAb JAR 5 (IgG2b). In words: ELISA. The settings on record: mAb at 10 µg/ml (highest point of titration); wells coated with 2 µg/ml of wild-type or mutant fHbp; parent: est. 3.7; read off a plot.
The target of assay [5] is T1, recombinant factor H binding protein (fHbp) ID 1 (Neisseria meningitidis (strain MC58), UniProt Q9JXV4).
T1 construct: also called wild-type (WT) fHbp ID 1; rfHbp; source: E. coli (pET21b), purified (Ni-NTA agarose)
In words: ELISA; wells coated with 2 µg/ml recombinant fHbp in PBS overnight at 4°C; dilutions of mAb overnight at 4°C; bound mAb detected with anti-mouse or anti-human IgG (Fc specific)-alkaline phosphatase (legend of Figure 5: anti-human kappa light chain). The settings on record: both partners purified.

For assay [6], the target named is T2, fHbp ID 1 on live bacteria of N. meningitidis group B strain H44/76 (Neisseria meningitidis (endogenous in …, UniProt Q9JXV4)).
T2 construct: source: endogenous, live bacteria of group B strain H44/76
In words: flow cytometry on cells; as a6, for the anti-fHbp mAb added at 2 or 50 µg/ml for 30 min at room temperature to live bacteria; read-out is bound fH. The following applies: one partner purified.

[7] abbreviates: mAb at 10 µg/ml (highest point of titration), parent: est. 3.6.

As to “murine anti-fHbp mAb JAR 1 (IgG3) (antibody)”, in assay [1], the percent inhibition of mAb502 binding to fHbp was more than 90%.
Consider “recombinant factor H binding protein (fHbp) ID 1 (from UniProt Q9JXV4) D142A”, for which the response came out at 3.5 OD 405nm in assay [2] (setting [7]); 1.4 OD 405nm in assay [2] (mAb at about 0.08 µg/ml (point read from the log x axis, est.), parent: est. 3.7); 2.3 OD 405nm in assay [3]; 3.6 OD 405nm in assay [4].
On to “recombinant factor H binding protein (fHbp) ID 1 (from UniProt Q9JXV4) K143A”, for which the response stood at 3.6 OD 405nm in assay [2] (setting [7]), 1.3 OD 405nm in assay [3] and 3.8 OD 405nm in assay [4].
“recombinant factor H binding protein (fHbp) ID 1 (from UniProt Q9JXV4) R204A”: the response is 0.3 OD 405nm in assay [2] (setting [7]), 0.15 OD 405nm in assay [3] and 3.4 OD 405nm in assay [4].
For the molecule “recombinant factor H binding protein (fHbp) ID 1 (from UniProt Q9JXV4) R204H”, the response in assay [2] (setting [7]) came to 0.3 OD 405nm; in assay [3] it was 2.2 OD 405nm; in assay [4], 3.6 OD 405nm.

B1: chimeric human IgG1 mouse anti-fHbp mAb502 (antibody, V domains shown)
VH: EVQLQESGPGLAKPSQTLSLTCSVTGYSITSDFWNWIRKFPGNKLEYMGYISYSGSTDYNPSLKSRISITRDTSKNQYYLQLNSVTAEDTATYYCARYFGSSYAMDHWGQGTSVTVSS
VL: DIQMTQSPASLSASVGETVTITCRASGNIHNYLAWYQQKQGKSPQLLVYTAKTLAEGVPSRFSGSGSGTQFSLKINSLQPEDFGSYYCQHFWSTPWTFGGGTKLEIK
notes: also called chimeric mAb502; chimeric human IgG1 mAb502; source: transfected CHO cells, serum-free medium, purified from supernatant (HiTrap protein G)
Take B1: the binding result in assay [5] and in assay [6] was “binds” throughout.

B2: chimeric human IgG1 mouse anti-fHbp JAR 1 mAb (antibody, V domains shown)
VH: QVQLQQPGTELVMPGASVKLSCKASGYTFTNYWMHWVKQRPGQGLEWIGEIDPSDNYTKYNQKFKGKATLTVHTSSTTAYIQLSSLTSEDSAVYYCARGEVTTYLDYWGQGTTLIVSS
VL: DILMTQSPSSLTVSAGEKVTMSCKSSQSLLASDNQNNFLAWHQQKPGQSPKMLIIWASTRVSGVPDRFIGSGSGTDFTLTINSVQAEDLAVYYCQQSYSAPLTFGAGTKLELQ
notes: also called chimeric JAR 1; chimeric human IgG1 JAR 1; source: transfected CHO cells, serum-free medium, purified from supernatant (HiTrap protein G)
With B2, the binding result in assay [5] and in assay [6] was “binds” in each case.

(Values after publication PMC3312907, “Monoclonal Antibodies to Meningococcal Factor H Binding Protein with Overlapping Epitopes and Discordant Functional Activity” (PLoS ONE, 2012).)
